Experimental data taken from paper PMC11759358.

Biological target: Flag::Hth (Homothorax, Flag-tagged) (Drosophila) (UniProt O46339)
Assay: co-IP; SF9 extracts with Flag::Hth, His::Exd and HA::Abd-B (wild type or W>A) mixed and incubated on anti-Flag resin; lysis solution 140 mM KCl, 5% glycerol, 2.5% MgCl2, 25 mM Hepes pH 7.8, 10 mM imidazole; Western blot by the tags

UniProt O46339, sequence (O46339 whole entry): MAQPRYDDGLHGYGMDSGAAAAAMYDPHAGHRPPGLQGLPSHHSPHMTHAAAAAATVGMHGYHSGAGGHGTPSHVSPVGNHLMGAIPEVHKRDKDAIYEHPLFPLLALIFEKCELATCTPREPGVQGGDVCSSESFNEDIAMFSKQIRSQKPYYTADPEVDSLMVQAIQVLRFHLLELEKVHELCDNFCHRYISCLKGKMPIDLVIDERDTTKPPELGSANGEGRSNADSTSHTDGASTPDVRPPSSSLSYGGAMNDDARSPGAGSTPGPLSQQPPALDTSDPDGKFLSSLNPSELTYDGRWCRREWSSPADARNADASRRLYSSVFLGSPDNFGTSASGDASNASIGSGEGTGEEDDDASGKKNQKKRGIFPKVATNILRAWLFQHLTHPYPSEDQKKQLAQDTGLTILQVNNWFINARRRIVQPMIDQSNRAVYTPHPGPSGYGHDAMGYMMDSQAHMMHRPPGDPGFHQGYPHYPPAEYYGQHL

percent reduction of co-precipitated protein against wild-type Abd-B: 24%
Substance: HA::Abd-B^W (Abdominal-B with the Tryptophan of the HX-like motif mutated to Alanine, HA-tagged) (from UniProt P09087 1-493)
